From the supplement of paper PMC9112550, “Optimization of the antimicrobial peptide Bac7 by deep mutational scanning” (BMC Biology, 2022)

System: Escherichia coli TOP10
Test: shrunken log2 fold change of peptide-encoding DNA abundance (4.5 h post-induction vs induction); higher = less antimicrobial activity (less host growth inhibition)
Conditions: time post-induction: 4.5 h; library: site-saturation at positions 5, 18, 19, 20
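Also: peptides expressed intracellularly from a pBAD plasmid library in pooled LB shake-flask culture, induced with 0.3% L-arabinose, DNA abundance read by NGS, three biological replicates, DESeq2 with apeglm shrinkage.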

Sequence	shrunken log2 fold change
RRIRARPPRLPRPRPRPWKCPRP	0.0662
RRIRARPPRLPRPRPRPWLSPRP	0.18
RRIRARPPRLPRPRPRPWMGPRP	0.0382
RRIRARPPRLPRPRPRPWMNPRP	-0.121
RRIRARPPRLPRPRPRPWMPPRP	-0.216
RRIRARPPRLPRPRPRPWMYPRP	-0.794
RRIRARPPRLPRPRPRPWNTPRP	-0.427
RRIRARPPRLPRPRPRPWPHPRP	-0.0357
RRIRARPPRLPRPRPRPWPSPRP	-0.0645
RRIRARPPRLPRPRPRPWQAPRP	-0.0548
RRIRARPPRLPRPRPRPWQRPRP	0.000557
RRIRARPPRLPRPRPRPWTVPRP	-0.0846
RRIRARPPRLPRPRPRPWWEPRP	0.37
RRIRARPPRLPRPRPRPWWHPRP	-0.0749
RRIRARPPRLPRPRPRPWWRPRP	0.0229
RRIRARPPRLPRPRPRPWYPPRP	-0.11
RRIRARPPRLPRPRPRPYCEPRP	0.0687
RRIRARPPRLPRPRPRPYCIPRP	-0.151
RRIRARPPRLPRPRPRPYDIPRP	0.00126
RRIRARPPRLPRPRPRPYDKPRP	-0.865

Sequence	shrunken log2 fold change
RRIRARPPRLPRPRPRPYDMPRP	-0.0195
RRIRARPPRLPRPRPRPYEIPRP	-0.059
RRIRARPPRLPRPRPRPYEPPRP	0.116
RRIRARPPRLPRPRPRPYEWPRP	-0.0646
RRIRARPPRLPRPRPRPYFVPRP	-0.122
RRIRARPPRLPRPRPRPYFWPRP	-0.0609
RRIRARPPRLPRPRPRPYGNPRP	-0.0109
RRIRARPPRLPRPRPRPYHGPRP	-1.67
RRIRARPPRLPRPRPRPYHKPRP	-0.193
RRIRARPPRLPRPRPRPYHVPRP	-0.963
RRIRARPPRLPRPRPRPYIWPRP	-0.543
RRIRARPPRLPRPRPRPYKVPRP	-0.00867
RRIRARPPRLPRPRPRPYMKPRP	-0.366
RRIRARPPRLPRPRPRPYMNPRP	-0.337
RRIRARPPRLPRPRPRPYNCPRP	-0.0254
RRIRARPPRLPRPRPRPYNSPRP	-1.21
RRIRARPPRLPRPRPRPYPIPRP	-0.249
RRIRARPPRLPRPRPRPYPVPRP	-0.191
RRIRARPPRLPRPRPRPYQGPRP	-0.135
RRIRARPPRLPRPRPRPYRLPRP	-0.275

Sequence	shrunken log2 fold change
RRIRARPPRLPRPRPRPYRQPRP	-0.0187
RRIRARPPRLPRPRPRPYSIPRP	-0.374
RRIRARPPRLPRPRPRPYSKPRP	-0.91
RRIRARPPRLPRPRPRPYTHPRP	-0.373
RRIRARPPRLPRPRPRPYTSPRP	0.0229
RRIRARPPRLPRPRPRPYTTPRP	-0.168
RRIRARPPRLPRPRPRPYTYPRP	-0.458
RRIRARPPRLPRPRPRPYWLPRP	-0.148
RRIRARPPRLPRPRPRPYWTPRP	-0.16
RRIRARPPRLPRPRPRPYYFPRP	-0.701
RRIRARPPRLPRPRPRPYYNPRP	-0.97
RRIRCRPPRLPRPRPRPACDPRP	0.389
RRIRCRPPRLPRPRPRPADSPRP	-0.0251
RRIRCRPPRLPRPRPRPAEIPRP	-0.0903
RRIRCRPPRLPRPRPRPAETPRP	-0.035
RRIRCRPPRLPRPRPRPAFYPRP	-0.146
RRIRCRPPRLPRPRPRPAHKPRP	-0.0944
RRIRCRPPRLPRPRPRPAHNPRP	-0.151
RRIRCRPPRLPRPRPRPALEPRP	-0.00844
RRIRCRPPRLPRPRPRPALFPRP	0.344
